Measurements from patent publication US11142588B2, “Polypeptides which bind C-X-C chemokine receptor type 4 (CXCR4) and methods of treating or reducing the risk of fibrosis and cancer” (AdAlta Limited, priority 2015, dated 2021).
Changes are numbered by the printed parent chain. “And” between values parts separate entries of the source, which are not always exact repeats. Equal values may be shown once. “Also recorded” adds a separate entry of the source.

T1: CCR4 (Homo sapiens, UniProt P51679)
T1 sequence (P51679 1-360): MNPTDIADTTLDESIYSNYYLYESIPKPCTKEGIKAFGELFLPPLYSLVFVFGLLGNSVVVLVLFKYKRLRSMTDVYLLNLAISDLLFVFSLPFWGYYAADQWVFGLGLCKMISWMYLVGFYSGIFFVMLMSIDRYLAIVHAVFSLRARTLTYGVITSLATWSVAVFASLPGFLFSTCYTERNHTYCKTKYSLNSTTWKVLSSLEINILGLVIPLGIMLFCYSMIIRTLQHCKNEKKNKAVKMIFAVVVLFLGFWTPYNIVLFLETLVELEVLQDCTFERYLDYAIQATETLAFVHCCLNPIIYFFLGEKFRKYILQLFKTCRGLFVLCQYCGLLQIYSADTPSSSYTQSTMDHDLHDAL

B1: AM4-746: affinity matured CXCR4 i-body, SEQ ID NO: 76 (protein)
chain: LQVDIVPSQGEISVGESKFFLCQVAGSKSNIRISWFSPNGEKLTPNQQRISVVWNDDSSSTLTIYNANIDDAGIYKCVVYRTGGYRHRYLKLGEATVNVKIFQ
modifications: protein sequence encoding AM4-746
B2: AM5-245: affinity matured CXCR4 i-body, SEQ ID NO: 68 (protein)
chain: B1 chain with V24A, K28G, N30H, Y80W, Y89A, K91V
modifications: protein sequence encoding AM5-245
B3: AM4-1121: affinity matured CXCR4 i-body, SEQ ID NO: 48 (protein)
chain: B1 chain with N30G, K91R
modifications: protein sequence encoding AM4-1121

Tests used:
[1] = cited from earlier work
[2] = target: T2, human CXCR4 (CXCR4 positive lipoparticles) (Homo sapiens, UniProt P61073); experiment: Biacore SPR kinetic binding to immobilised CXCR4 lipoparticles
T2 construct: purchased Integral Molecular LEV-101B
T2 sequence (P61073 whole entry): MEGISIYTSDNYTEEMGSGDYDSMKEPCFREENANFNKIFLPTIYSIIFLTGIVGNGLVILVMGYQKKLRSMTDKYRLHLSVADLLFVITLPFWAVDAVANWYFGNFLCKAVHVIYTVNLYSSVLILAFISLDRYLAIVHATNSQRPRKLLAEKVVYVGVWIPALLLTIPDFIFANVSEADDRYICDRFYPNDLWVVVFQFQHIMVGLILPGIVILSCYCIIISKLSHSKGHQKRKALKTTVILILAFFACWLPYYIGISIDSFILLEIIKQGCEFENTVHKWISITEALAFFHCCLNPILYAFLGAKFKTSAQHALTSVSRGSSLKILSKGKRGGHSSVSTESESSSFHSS
Method: (FIGS. 2A-2C, 5A-5C, 11A-11D, 17A-17B) Kinetic binding analysis of selected i-bodies with immobilized CXCR4 lipoparticles were performed at 25° C. using Biacore T200 instrument (GE Healthcare, Uppsala, Sweden). Streptavidin immobilization was performed in 1×HBS-P+ running buffer (10 mM HEPES, 150 mM NaCl, 0.05% [v/v] Tween-20). […] All binding experiments involving lipoparticles were performed with 1×HBS/BSA (10 mM HEPES, 150 mM NaCl, 1 mg/mL BSA) as instrument running buffer. […] In order to determine binding kinetics, serial dilutions (three-fold) of i-bodies diluted in 1×HBS/BSA were injected over immobilized lipoparticles with the association and dissociation phases monitored for 60 sec and 600 sec, respectively. A control measurement of the instrument running buffer (“zero-buffer” blank) solution was also included for double referencing purposes. Collected experimental data were processed using Scrubber software (www.biologic.com.au). Kinetic parameters (ka=association and kd=dissociation rate constants) and equilibrium dissociation constant (KD=kd/ka) were derived by fitting each set of experimental data to a Langmuir 1:1 binding model. All interaction measurements were performed in triplicate and the derived binding parameters reported as averaged values±standard deviation.

[3] = system: white blood cells, LSK and LSKSLAM cells in peripheral blood; experiment: Stem cell mobilisation in mice after i.v. injection; assay type: in vivo, mouse; details: 1 and 3 hours after i.v. injection, compared to AMD3100
Method: After 1 and 3 hours, mice were euthanized and peripheral blood (PB) harvested. Spleens were harvested and weighed to assess for splenomegaly (enlargement of the spleen). Samples were lysed to remove red blood cells and 4000 cells plated for LPP (low-proliferative potential) and CFU-HPP (colony forming unit-high proliferative potential) colonies (colony counting 7 days post-plating). The remaining cells were stained with an antibody cocktail to assess lineage-committed, stem and progenitor cell content. Flow cytometric analysis was used to calculate numbers of lineage-committed cells, haemopoietic stem and progenitor cells as well as enriched HSC per volume of PB.

CXCR4 [4] = target: T3, CXCR4 (Homo sapiens, UniProt P61073); experiment: Calcium flux assay (Screen Quest Fluo-8, FLIPR) in antagonist mode; assay type: cell-based; details: SDF-1 at EC80
T3 sequence (P61073 whole entry): as above
Method: Inhibition of Ca2+ influx by controls or i-bodies (IC50) was then determined.
Mammalian cells stably expressing human CXCR4 receptor were produced in-house by Multispan, Inc (catalog no. C1004-1). Control agonist used was SDF-1 (Peprotech, Cat #300-28A).
Cells were seeded in 384-well plate at an appropriate density and cultured overnight. Calcium assay was conducted according to the manufacturer's protocols. The calcium dye loading buffer was added to the cells and incubated for one hour at 37° C. Calcium flux was monitored for 120 seconds with compound injected into the wells at 19th second. In antagonist mode, carrier or compounds were preincubated with the cells for 30 minutes before calcium flux measurement with the control agonist at EC80 concentration obtained from dose-response curve.

[5] = system: Human platelet rich plasma; experiment: SDF-1α induced platelet aggregation; assay type: cell-based; details: 10 or 20 ug/mL, 100 nM SDF-1 alpha
Method: Experiments were carried out to examine whether the i-bodies could block platelet aggregation induced by SDF-1α. […] In the presence of negative control i-body 21H5 (or the isotype control for 12G5: mouse IgG2a). SDF-1 induced a robust and reproducible aggregation (the descending black curves, which indicate an increase in light transmission), which matches with what has been previously published.

[6] = Murine air pouch model with SDF-1; assay type: in vivo, BALB/c mice; details: intraperitoneal, 30 minutes before SDF-1 6 μg
Method: The ability of i-bodies to block inflammation was evaluated in an in vivo murine air pouch model. The subcutaneous (s.c.) air pouch is an in vivo model used to study acute and chronic inflammation (Durate et al, Models of Inflammation: Carrageenan Air Pouch, Current Protocols in Pharmacology 5.6.1-5.6.8, March 2012). Injection of irritants into an air pouch in rats or mice induces an inflammatory response that can be quantified by the volume of exudate produced, the infiltration of cells, and the release of inflammatory mediators. An air pouch, is generated by injection of sterile air under the skin of the back of the mouse. […] Air pouch lavage fluid is then analyzed for cell trafficking and cytokine release.
The air pouch assay was performed on 7-week-old BALB/c mice. On days 1 and 3, 0.2 ml/g initial body weight (IBW) of sterile air was injected under the back skin to create the pouch. […] Thirty minutes later, SDF-1 (6 μg) was injected into the pouch. Four hours later, the mice were killed in a CO2 chamber and the air pouch was washed. Cells were collected, counted, and characterized by flow cytometry.

CXCR4 [7] = target: T3, CXCR4; experiment: β-arrestin BRET assay, antagonist mode with 100 nM SDF-1; assay type: cell-based; set-up: expressed in transfected cells; host or cells: HEK293FT; details: only an order of magnitude is printed in the cell
Excerpt: (FIGS. 3A-3F and 14) BRET was used in this study to assess the real-time kinetic profiles resulting from any consequent increase in proximity, building upon the previously validated monitoring of GPCR/β-arrestin interactions utilizing BRET. BRET occurs between a complementary Renilla luciferase (Rluc) variant as donor and green fluorescent protein variant as acceptor. Upon Rluc-catalyzed oxidation of the coelenterazine substrate (such as coelenterazine h for first generation BRET (BRET) or EnduRen for extended BRET (eBRET), energy is transferred to the acceptor if within 10 nm, resulting in acceptor light emission peaking at a characteristic wavelength. BRET (3-arrestin assays were carried out as described previously (See, H. B., Seeber, R. M., Kocan, M., Eidne, K. A. and Pfleger, K. D. (2011) ‘Application of G protein-coupled receptor-heteromer identification technology to monitor beta-arrestin recruitment to G protein-coupled receptor heteromers’, Assay Drug Dev Technol, 9(1), 21-30, 10.1089/adt.2010.0336). CXCR4/Rluc8 cDNA constructs were generated from plasmids containing the respective receptor cDNA tagged with Rluc kindly provided by Aron Chakera (Oxford University, United Kingdom). The β-arrestin 2/Venus cDNA construct was prepared previously from pCS2-Venus kindly provided by Atsushi Miyawaki (RIKEN Brain Science Institute, Wako-city, Japan). BRET technology in cells transiently expressing CXCR4/Rluc8 and β-arrestin2/Venus in the presence of 100 nM SDF-1 agonist was evaluated in the presence of the CXCR4 agonist SDF-1/CXCL12 and the i-bodies. HEK293FT cells were maintained at 37° C., 5% CO2 in Complete Media (Dulbecco's modified Eagle's medium containing 0.3 mg/mL glutamine, 100 IU/mL penicillin, and […] streptomycin; Gibco) supplemented with 10% fetal calf serum (FCS) and […] Geneticin (Gibco). Transfections were carried out 24 h after seeding using Genejuice (Novagen) according to manufacturer's instructions. Cells were harvested with 0.05% Trypsin-EDTA (Gibco). HEK293FT cells were transfected using FuGene6 (Promega). 5 μM coelenterazine h (Promega) in HBSS was used as the luciferase substrate solution. Cells were harvested 24 h post-transfection in HEPES-buffered phenol red-free Complete Medium containing 5% FCS and added to a poly-L-lysine-coated white 96-well plate (Nunc). Dose-response curves were generated using BRET, with medium in the plate being replaced with PBS containing […] coelenterazine h (Molecular Probes) and assays carried out immediately. For these assays, 48 h post-transfection, the plate was incubated at […], 5% CO2 for 2 h with […] EnduRen (Promega) to ensure substrate equilibrium was reached. All BRET measurements were taken at 37° C. using the VICTOR Light plate reader with Wallac 1420 software (PerkinElmer). Filtered light emissions were sequentially measured at 400-475 and 520-540 nm. The BRET signal was calculated by subtracting the ratio of 520-540 nm emission over 400-475 nm emission for a vehicle-treated cell sample from the same ratio for a second aliquot of the same cells treated with agonist (in this instance in the presence of SDF-1 or CXCL12) and i-body (ADCX-99, ADCX-272, ACDX-6, ACDX-306, ADCX-668) at various concentrations. Data are mean±S.E.M. of four independent experiments carried out in duplicate.
Binding of the i-bodies to CXCR4 were examined in a β-Arrestin BRET assay as described in See, Heng B et al (2011) Assay and Drug Development Technologies 9(1):21-30. The i-bodes were examined at ten concentrations with and without 100 nM SDF-1 with the addition of ‘vehicle’ and ‘SDF-1+vehicle’ controls in order to characterise if the i-bodies are agonist or antagonists of CXCR4 activity.

CCR4 = target: T1, CCR4; experiment: PathHunter (DiscoverX) β-arrestin assay, CCR4; assay type: cell-based
Method: (FIG. 9) The PathHunter® β-Arrestin assay (DiscoveRx) was performed according to the manufacturer's protocol. Cells were seeded into white walled, 384-well tissue culture-treated microplates (Corning) and normalized at 5,000 cells (or 10,000 cells for CXCR4) in a total volume of […]. Cell growth was at 37° C. (5% CO2, 95% relative humidity). […] Agonists were then added at the EC80 concentration and incubation was continued at 37° C. for 90 min (or 180 min for CCR1). Assay signal was generated through a single addition of 15 μL (50% v/v) of PathHunter Detection reagent cocktail, followed by 1 h incubation at room temperature. Microplates were read following signal generation with a PerkinElmer Envision instrument for chemiluminescent signal detection of relative light units (RLU).

[8] = CXCR4 expressed on lipoparticles (Table 4)
[9] = off-rate, CXCR4 expressed on lipoparticles (Table 3)

Molecule | effectiveness relative to AMD3100 at releasing neutrophils from the bone marrow ([1]; Hatse et al 2005) [fold] | diet-induced atherosclerotic lesion development ([1]; long-term inhibition, Apoe−/− and Ldlr−/− mice, Zernecke et al 2008) | Ka [2, 8] | mobilisation of white blood cells [3] | Calcium Inhibition EC50 (CXCR4 [4]) | blocking of SDF-1α induced platelet aggregation [5] | cell migration / leukocyte infiltration into the air pouch [6] | dissociation rate constant (kd) [2, 8] | dissociation rate constant (kd) [2, 9] | IC50 in β-Arrestin BRET assay (Antagonist mode in the presence of 100 nM SDF-1) (CXCR4 [7]) | CCR4 activity (CCR4) [%]
c1ccc(CNCc2ccc(CN3CCCNCCNCCCNCC3)cc2)nc1 [AMD3465] | 10 | aggravated diet-induced atherosclerotic lesion development |  |  |  |  |  |  |  |  | 
B1 |  |  | 2.5e+06 M⁻¹ s⁻¹ | No mobilisation | uM | blocked aggregation to the same extent as the MAb12G5 | inhibiting leukocyte infiltration; also recorded: inhibited cell migration |  |  |  | 
B2 |  |  | 813000 M⁻¹ s⁻¹ and 771000 M⁻¹ s⁻¹ |  |  |  |  | 12100 M⁻¹ s⁻¹ and 12300 M⁻¹ s⁻¹ | 0.01445 | ~uM | −5
B3 |  |  | 1.289e+06 M⁻¹ s⁻¹ and 1.42e+06 M⁻¹ s⁻¹ | No mobilisation | uM | most effective; also recorded: most efficient | inhibiting leukocyte infiltration; also recorded: inhibited cell migration | 9290 M⁻¹ s⁻¹ and 9540 M⁻¹ s⁻¹ | 0.1153 |  | 
